Measurements: patent US20190284243A1 (UNIVERSITY OF COPENHAGEN, published 2019)
Ends that are not written are not given here. PEGA1900 = not defined here

B2: hexapeptide HRMVRG (SEQ ID NO: 4) (peptide)
peptide: HRMVRG-PEGA1900
modifications: reading uncertain
notes: also called HRMVRG-PEGA1900; hexapeptide partner

Experiments:
[1] = biological target: B2; test: pairs of beads of two libraries adhering to each other, identified by MSMS
Protocol: This example illustrates how to identify a β-body recognizing a linear peptide. A split-mix library of 21.000.000 β-bodies according to the invention were prepared by combinatorial synthesis as described in Example 4 above. This was performed on 100 μm beads with no fluorescence. A second split mix library of 470.000 hexapeptides were prepared in a similar manner except that this library was prepared on larger 400 μm beads with fluorescence label attached to some functional groups. The two libraries were mixed and pairs of beads adhering to each other in pairs with one large fluorescent and one small non-fluorescent bead were collected and the two peptides were identified by MSMS. […] EGFP is an abbreviation of Enhanced Green Fluorescent Protein.

[2] = biological target: T1, Enhanced Green Fluorescent Protein (UniProt P42212 1-238 = GFP); test: green fluorescence on HRMVRG-PEGA1900 beads
T1 construct: treated as one molecule; also called EGFP; eGFP

[3] = biological target: T2, β-body (2) TTYTYPGDTFTI (SEQ ID NO: 58) (with a fluorescent probe (2-F*) or on beads, by assay); test: fluorescent β-body on beads modified with (2)
T2 construct: the assay field says which was which; also called 2-F*; bead-(2)
T2 peptide: TTYTYPGDTFTI

B1: β-body KTGTQNLTGPGRTHTQTATEG (SEQ ID NO: 3) (peptide)
peptide: KTGTQNLTGPGRTHTQTATEG
notes: Found from a one-bead-one-compound library K(TX)4PG(XT)4EG
B1: binds [1].

B2: no binding [2].

B3: β-body (3) TFTFTFPGLTRTHT (SEQ ID NO: 59) (designed binder)
peptide: TFTFTFPGLTRTHT
modifications: also: with a fluorescent probe, place not given here
notes: The text calls it a modified version of (2); also called fluorescent-(3)
With B3 the “fold reduction of binding against fluorescent-(1)” value [3] was 7 fold.
